Laboratory results taken from US20080206190A1 (CYTHERIS, published 2008).

T1: PHA.L, lectin from Phaseolus vulgaris (Phaseolus vulgaris, UniProt P05087 21-272)
T1 construct: Lectin coated on the plate
T1 sequence (looked up): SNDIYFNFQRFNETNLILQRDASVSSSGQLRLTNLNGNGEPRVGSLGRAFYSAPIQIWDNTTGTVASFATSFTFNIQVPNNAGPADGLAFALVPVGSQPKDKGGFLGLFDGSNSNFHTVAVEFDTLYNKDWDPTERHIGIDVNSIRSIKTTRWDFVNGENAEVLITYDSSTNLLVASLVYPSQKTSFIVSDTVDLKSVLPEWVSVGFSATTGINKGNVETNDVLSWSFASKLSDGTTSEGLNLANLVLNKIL

T2: UEA.I, lectin from Ulex europeus (Ulex europeus, UniProt P22972 1-243)
T2 construct: Lectin coated on the plate
T2 sequence (looked up): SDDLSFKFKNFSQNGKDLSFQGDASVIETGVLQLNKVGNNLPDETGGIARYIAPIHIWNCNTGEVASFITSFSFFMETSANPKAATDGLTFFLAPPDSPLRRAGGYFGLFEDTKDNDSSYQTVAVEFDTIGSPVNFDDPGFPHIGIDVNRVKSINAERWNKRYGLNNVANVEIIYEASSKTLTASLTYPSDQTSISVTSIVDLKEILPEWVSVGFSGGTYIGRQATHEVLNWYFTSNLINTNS

B1: purified CHO-derived recombinant human IL-7 (highly glycosylated / hyperglycosylated hIL-7) (ligand)
chain: DCDIEGKDGKQYESVLMVSIDQLLDSMKEIGSNCLNNEFNFFKRHICDANKEGMFLFRAARKLRQFLKMNSTGDFDLHLLKVSEGTTILLNCTGQVKGRKPAALGEAQPTKSLEENKSLKEQKKLNDLCFLKRLLQEIKTCWNKILMGTKEH
modifications: complex N-linked oligosaccharides at Asn 70, 91 and 116; O-glycan at Thr 110; batch is a mixture of fully and partially glycosylated proteins
notes: also called CHO-derived hIL-7; purified IL-7 protein
B2: ABA, lectin from Agaricus bisporus (other, UniProt Q00022 2-143, looked up)
chain: TYTISIRVYQTTPKGFFRPVERTNWKYANGGTWDEVRGEYVLTMGGSGTSGSLRFVSSDTDESFVATFGVHNYKRWCDIVTNLTNEQTALVINQEYYGVPIRDQARENQLTSYNVANAKGRRFAIEYTVTEGDNLKANLIIG
notes: Lectin coated on the plate

Legend:
Assay in all cases: lectin-coated plate ELISA; bound IL-7 shown by biotinylated anti-hIL-7 antibody and streptavidin-peroxidase
[1] = molecular target: T1, PHA.L, lectin from Phaseolus vulgaris
Procedure: (§1) An array of lectins having affinity for N- and O-glycan structures was selected and used to coat 96 well microplates. Identical amounts of recombinant purified IL-7 preparations were incubated into lectin coated microplate wells. During this step, according to the affinity of a given lectin to the glycan decoration of IL-7, different amount of IL-7 were kept bound to the lectin. Revelation was conducted by incubating an IL-7 specific antibody coupled to Biotin.
(§2) Eight different lectins were used to characterize the IL-7 purified samples. Each lectin specifically recognizes sugar moieties.

[2] = molecular target: T2, UEA.I, lectin from Ulex europeus
Procedure: as §1, §2

[3] = molecular target: B1
Procedure: as §1, §2

| Binder | binding result [1] | binding result [2] | binding result [3] |
| --- | --- | --- | --- |
| B1 | binds | binds | – |
| B2 | – | – | binds |
